Data taken from US9657092B2, “S100A4 antibodies and therapeutic uses thereof” (LYKERA BIOMED SA, priority 2010, dated 2017).

Key:
Human S100A2 = target: T1, Human S100A2 (Homo sapiens, UniProt P29034); assay: ELISA specificity (reaction pattern of mAb); assay type: binding; parameters: key: ++++ positive reaction; − no reaction
T1 construct: purchased Abnova

MiaPACA-2 tumors = assay: MiaPACA-2 subcutaneous xenograft tumor development; assay type: in vivo, nude mice; settings: MiaPACA-2, end of experiment (day 30)
Procedure: (§1) MiaPACA-2 human pancreatic adenocarcinoma cell line and HCT116 human colorectal adenocarcinoma cell line in exponential growth were harvested with trypsin-EDTA (0.05%/0.02%) (Invitrogen), washed, and examined for viability by trypan blue dye exclusion. Viability was greater than 95%. For primary tumor growth, cells (either 5×10^6 or 1×10^6 cells for MiaPACA-2 or HCT116 respectively in 0.1 mL DMEM high glucose) were subcutaneously injected into the flanks of nude mice. Tumor volumes between 65-160 mm^3 for MiaPACA-2 and volumes between 155-370 mm^3 for HCT116 were used to divide the mice into two groups of either ten mice each (MiaPACA-2) or seven mice each (HCT116), such that the mean tumor size was equal between groups (approximately 100 mm^3 for MiaPACA-2 or 220 mm^3 for HCT116). Tumor growth was followed by measuring tumor diameters with calipers and the tumor volume was calculated using an approximated formula for a prolate ellipsoid: volume=(D×d^2)/2 where D is the longest axis of the tumor and d the shortest. Mice were treated either with vehicle (PBS) or with the antibody, i.p. three times per week at 25 mg/Kg/100 μL of sterile PBS, starting the treatment at defined tumor volume (100 mm^3 and 220 mm^3). […]

[1] = system: MMP9 proteolytic activity induced by S100A4; assay: Gelatin zymography of HUVECs conditioned media; assay type: cell-based, human; settings: 1-2 μM antibody with S100A4 1 μM, 24 h
Procedure: HUVECs were grown in EBM plus supplements (EGM) and 10% FCS, in 24-well culture plates. Before stimulation, cells were maintained 4 hours in EBM in the absence of serum or other supplements. Then, S100A4 (0.3-1-3 μM), in EBM were added to the culture to analyze their capacity to increase the secretion of active forms of matrix metalloproteinases (MMPs). […] After 24 hours at 37° C., supernatants were centrifuged to remove the debris. Then, 10 μL of Laemmli sample buffer without reducing agent (80 mM Tris-HCl pH 6.8, 4% SDS, 10% glycerol, 0.01% bromophenol blue) was added to 10 μl of each of the clear supernatants that were loaded without boiling in a 8% SDS-polyacrylamide gel copolymerized with Type A gelatine from porcine skin (Sigma) at a final concentration of 1 mg/mL. After electrophoresis, SDS was removed by washing the gel three times for 15 minutes with 2.5% Triton X-100 in H2O. […] Staining was performed for 1 hour at RT with 0.1% naphthol amido black (Sigma) in acetic acid, methanol and water at a proportion of 1:3:6 in volume. Then, gels were washed with destaining solution until clear bands were observed over a dark background. Bands were quantified using the NIH ImageJ imaging software.

[2] = Body weight and adverse side effects in xenograft experiments; assay type: in vivo
[3] = system: HUVECs migration induced by VEGF plus S100A4; assay: HUVECs Transwell migration assay; assay type: cell-based, human
Procedure: Twenty-four-well cell culture plates with light-opaque PET membrane filter inserts with 8 μm-pores (Transwell HTS FluoroBlok™ Multiwell Insert Systems from Becton Dickinson) were used to test the migratory activity. The upper and lower surfaces of the Transwell membranes were coated for 2 hours at 37° C. with 15 μg/mL of Type I Collagen (Upstate). Endothelial cells (5×10^4 HUVEC's) suspended in 100 μl of EBM in the absence of serum or other supplements were seeded, after the collagen coating, onto the upper side of each Transwell chamber and incubated for 4 hours at 37° C. Then, S100A4 (1 μM), alone or in combination with VEGF (3 ng/mL) in EBM were added to the lower compartment of the 24-well plates to test their chemotactic capacity. […] Other monoclonal antibody anti-S100A4 called 5H4 (Leitat Biomed Division) was used to compare the activity. After 24 hours at 37° C., cells that had migrated to the lower side of the transwell were incubated with 5 μM Calcein-AM (Calbiochem) for 25-30 minutes at 37° C. Migrated cells were counted under a light microscope at a magnification of ×10. Comparisons between groups were made using the two-tailed nonparametric Mann Whitney U test. Differences for which P value was less than 0.05 were considered statistically significant.

Human S100A6 = target: T2, Human S100A6 (Homo sapiens, UniProt P06703); assay: ELISA specificity (reaction pattern of mAb); assay type: binding; parameters: key: ++++ positive reaction; − no reaction
T2 construct: purchased Abnova

Human S100A7 = target: T3, Human S100A7 (Homo sapiens, UniProt P31151); assay: ELISA specificity (reaction pattern of mAb); assay type: binding; parameters: key: ++++ positive reaction; − no reaction
T3 construct: made in house
T3 sequence (P31151 1-101): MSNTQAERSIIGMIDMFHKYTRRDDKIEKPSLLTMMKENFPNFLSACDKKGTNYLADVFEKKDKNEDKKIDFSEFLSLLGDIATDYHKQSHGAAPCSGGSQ

HCT116 tumors = assay: HCT116 subcutaneous xenograft tumor development; assay type: in vivo, nude mice; settings: HCT116, end of experiment (day 21)
Procedure: as §1

Mouse S100A4 = target: T4, Mouse S100A4 (Mus musculus, UniProt P07091); assay: ELISA specificity (reaction pattern of mAb); assay type: binding; parameters: key to Reaction Pattern of mAb in ELISA, Mouse S100A4: ++++ positive reaction; − no reaction
T4 construct: made in house
T4 sequence (P07091 whole entry): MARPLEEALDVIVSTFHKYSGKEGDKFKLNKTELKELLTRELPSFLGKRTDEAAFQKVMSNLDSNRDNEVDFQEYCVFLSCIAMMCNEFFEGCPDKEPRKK

[4] = 25 mg/kg i.p. three times a week
[5] = VEGF 3 ng/mL plus S100A4 1 μM, 24 h

T1 sequence (P29034 whole entry): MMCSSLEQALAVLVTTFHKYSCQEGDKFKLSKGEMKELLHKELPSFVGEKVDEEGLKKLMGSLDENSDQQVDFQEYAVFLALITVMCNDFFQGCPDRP

B1: 5C3: mouse monoclonal anti-S100A4 antibody, IgG1, from hybridoma ECACC 10022401; VL SEQ ID NO: 1, VH SEQ ID NO: 2 (antibody, V domains shown)
VH: EAQLQQSGAELVKPGASVKLSCTASGFNIQETYMHWVKQRPEQGLEWIGRIDPANGNTKDDPKFQGKASITVDTSSNTAYLQLSSLTSEDTAVYYCASSYAMDYWGQGTSVTVSS
VL: DVLMTQTPLSLPVSLGDQASISCRSSQSIVHSNGNTYLEWYLQKTGQSPELLIYKVSNRLSGVPDRFSGSGSGTDFTLKISRVEAEDLGVYYCFQGSHVPFTFGSGTKLEIK
modifications: VH region of the 5C3 monoclonal antibody; VL region of the 5C3 monoclonal antibody
Reaction Pattern of mAb in ELISA, Human S100A2 (Human S100A2): − | tumor weight compared with the control group (MiaPACA-2 tumors): statistically significant decrease | activity of MMP9 in the media [1]: completely reduced | adverse side effects (motor incoordination, paralysis, ataxia, convulsions, diarrhoea, cachexia, erythema, hypothermia, mortality) [2, 4]: did not observe adverse side effects | body weight loss [2, 4]: No body weight loss | macroscopic analyses of organs [2, 4]: did not evidence abnormalities in organs | tolerability ([2]; 25 mg/kg, three times a week up to the end of experiment): well-tolerated | concentration that abolished the synergistic effect of VEGF plus S100A4 on HUVECs migration [3, 5]: 250 nM | neutralizing activity on HUVECs migration induced by S100A4 [3, 5]: in vitro neutralizing activity | migration induced by VEGF alone ([3]; VEGF alone): did not affect | Reaction Pattern of mAb in ELISA, Human S100A6 (Human S100A6): − | Reaction Pattern of mAb in ELISA, Human S100A7 (Human S100A7): − | tumor weight compared with the control group (HCT116 tumors): induced a decrease in tumor weight | Reaction Pattern of mAb in ELISA, Mouse S100A4 (Mouse S100A4): ++++ | reaction with murine S100A4 by ELISA (Mouse S100A4; purified protein): reacted
